Test results as given in PMC4191985.

Biological target: BamA^Eco (Escherichia coli) (UniProt P0A940)
Test: flow cytometry on cells
Conditions: remark: other sources report otherwise

Substance: CdiA^EC93, Q3YL96 33-3132
- percent of target cells bound to inhibitor cells: 73%
